Measurements taken from paper PMC11150655, “IpaA reveals distinct modes of vinculin activation during Shigella invasion and cell-matrix adhesion” (Life Science Alliance, 2024).
Residue numbers refer to the chain shown, from its start.

Assays:
Details in all cases: both partners purified
vinculin D1D2 K386D = biological target: T1, vinculin D1D2 K386D (human, UniProt P18206 1-484, K386D); experiment: native gel or EMSA; CN-PAGE: D1D2 variant (20 μM) with increasing molar ratio of aVBD, 60 min at 21°C; 7.5% (Fig 2, methods) or 10% (Fig 3, S3) native polyacrylamide gel, Coomassie staining, scanning densitometry normalised to monomeric D1D2 without aVBD; rates from linear fits against the aVBD:D1D2 ratio
T1 construct: vinculin, human, head subdomains D1 and D2, residues 1-484, with K386D
T1 sequence (looked up): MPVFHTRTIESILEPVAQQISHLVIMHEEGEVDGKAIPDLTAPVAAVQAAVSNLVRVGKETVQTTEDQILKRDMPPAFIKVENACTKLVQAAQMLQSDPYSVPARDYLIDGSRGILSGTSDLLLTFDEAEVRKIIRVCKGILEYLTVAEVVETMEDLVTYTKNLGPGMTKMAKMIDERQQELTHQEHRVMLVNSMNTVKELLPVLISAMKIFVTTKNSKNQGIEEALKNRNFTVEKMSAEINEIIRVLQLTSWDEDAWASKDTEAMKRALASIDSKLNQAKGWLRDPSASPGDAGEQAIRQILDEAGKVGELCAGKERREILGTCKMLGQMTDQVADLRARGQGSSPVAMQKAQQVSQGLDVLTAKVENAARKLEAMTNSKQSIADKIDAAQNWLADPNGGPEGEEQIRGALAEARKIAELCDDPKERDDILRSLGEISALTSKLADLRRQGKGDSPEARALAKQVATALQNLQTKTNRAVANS

vinculin D1D2 D389R = biological target: T2, vinculin D1D2 D389R (human, UniProt P18206 1-484, D389R); experiment: as above
T2 construct: vinculin, human, head subdomains D1 and D2, residues 1-484, with D389R
T2 sequence (looked up): T1 sequence (looked up) with D386K, D389R

vinculin D1D2 N393D = biological target: T3, vinculin D1D2 N393D (human, UniProt P18206 1-484, N393D); experiment: as above
T3 construct: vinculin, human, head subdomains D1 and D2, residues 1-484, with N393D
T3 sequence (looked up): T1 sequence (looked up) with D386K, N393D

vinculin D1D2 K139E = biological target: T4, vinculin D1D2 K139E (human, UniProt P18206 1-484, K139E); experiment: as above
T4 construct: vinculin, human, head subdomains D1 and D2, residues 1-484, with K139E
T4 sequence (looked up): T1 sequence (looked up) with K139E, D386K

[1] = biological target: T5, vinculin D1D2 (vinculin residues 1–484) (human, UniProt P18206 1-484); experiment: as above
T5 construct: vinculin, human, head subdomains D1 and D2, residues 1-484; Valencia-Gallardo et al, 2023) for the plasmid and the purification; also called WT; parental D1D2
T5 sequence (looked up): T1 sequence (looked up) with D386K

vinculin D1D2 E143K = biological target: T6, vinculin D1D2 E143K (human, UniProt P18206 1-484, E143K); experiment: as above
T6 construct: vinculin, human, head subdomains D1 and D2, residues 1-484, with E143K
T6 sequence (looked up): T1 sequence (looked up) with E143K, D386K

vinculin D1D2 V367D = biological target: T7, vinculin D1D2 V367D (human, UniProt P18206 1-484, V367D); experiment: as above
T7 construct: vinculin, human, head subdomains D1 and D2, residues 1-484, with V367D
T7 sequence (looked up): T1 sequence (looked up) with V367D, D386K

[2] = biological target: T5, vinculin D1D2 (vinculin residues 1–484); experiment: native gel or EMSA; band A′ cut from the CN-PAGE gel, run in a second dimension on SDS–PAGE, Coomassie staining and scanning densitometry of D1D2 and aVBD (N = 2)

B1: IpaA domain containing all three IpaA VBS1-3 (aVBD) (domain or fragment)
chain: GDTYLTRETIFEASKKVTNSLSNLISLIGTKSGTQERELQEKSKDITKSTTEHRINNKLKVTDANIRNYVTETNADTIDKNHAIYEKAKEVSSALSKVLSKIDDTSAELLTDDISDLKNNNDITAENNNIYKAAKDVTTSLSKVLKNINKD
notes: The plasmid is said to be described previously; also called A483; source: E. coli DH5-α, pGEX-4T2-aVBD, purified (GSTrap, thrombin on the column, SEC on Superdex 200)
rate of monomer disappearance (vinculin D1D2 K386D): -1.29 AU^−1
rate of monomer disappearance (vinculin D1D2 D389R): -1.06 AU^−1
rate of monomer disappearance (vinculin D1D2 N393D): -1.32 AU^−1
rate of monomer disappearance (vinculin D1D2 K139E): -1.42 AU^−1
rate of monomer disappearance [1]: -1.06 AU^−1
rate of monomer disappearance (vinculin D1D2 E143K): -0.88 AU^−1
rate of monomer disappearance (vinculin D1D2 V367D): -0.88 AU^−1
stoichiometry N [2]: 3.2 D1D2:aVBD molar ratio
